Assay results from US20080280298A1, “SATB1: A DETERMINANT OF MORPHOGENESIS AND TUMOR METASTASIS” (The Regents of the University of California, priority 2005, published 2008).

Columns and labels:
MDA-MB-231 cells [1] = assay: Cell growth assay on plastic (2D) and Matrigel (3D); assay type: cell-based, human; details: 2D and 3D cultures up to 11 days, compared with parental cell line and control cells
Description: Reduction of cell proliferation rate. We examined whether loss of SATB1 expression affects cancer cell proliferation by culturing SATB1-shRNA1 MDA and SATB1-shRNA2 MDA cells on plastic dish {two-dimensional (2D) culture} or on a reconstituted basement membrane derived from Engelbreth-Holm-Swarm Tumor (Matrigel™) {three-dimensional (3D) culture}.
Cell Growth Assay. […] Growth medium were renewed every 4 days. Cells were harvested by trypsin treatment, and counted at each time point using a cell counter (Beckman Coulter, Inc.; Fullerton, Calif.) and haematocytometer. […] Cells were treated with dispase (BD Biosciences, Inc.) for 2 h at 37° C. to be isolated from Matrigel, incubated with trypsin for further 5 min, and counted using a haematocytometer. […]

SATB1 = SATB1 expression in MDA-MB-231 cells stably transfected with shRNA (Western blot, real-time RT-PCR); assay type: cell-based, human; details: for Expression of SATB1 was lowered by / SATB1 expression levels: MDA-MB-231 cells stably expressing the shRNA; for SATB1 expression levels: remaining expression; for SATB1 expression (in words): Western blot and quantitative RT-PCR, compared to parental MDA-MB-231 cells
Experimental: It was then tested whether suppression of SATB1 level in the highly metastatic MDA-MB-231 cells would affect their aggressiveness. Short hairpin-interfering RNAs (shRNA) were successfully designed to target SATB1 expression and are identified herein as SEQ ID NOs: 4-7.
Two shRNAs were designed according to SATB1 sequence (GenBank Accession No. NM_002971, hereby incorporated by reference) using siRNA Target Finder (Ambion, Austin, Tex.); The sequences of each oligoduplex were targeted as follows: shRNA2423, 5′-GGATTTGGAAGAGAGTGTC-3′ (SEQ ID NO: 8), or shRNA2595, 5′-GTCCACCTTGTCTTCTCTC-3′ (SEQ ID NO: 9). The oligoduplexes were cloned into the plasmid pSUPER (Oligoengine, Seattle, Wash.). Prepared DNAs were transfected into the aggressive breast cancer cell line MDA-MB-231 by lipofectamine 2000 (Invitrogen) and successfully transfected cells were selected by puromycin at 2 μg/ml or G418 at 1.5 mg/ml from 24 h after transfection. Single MDA-MB-231 cell clone stably expressing either shRNA2423 or shRNA2595 is designated SATB1-shRNA1 MDA or SATB1-shRNA2 MDA cells, respectively. For overexpression of SATB1, full length of SATB1 including 3′UTR was cloned into retroviral vector pLXSN (Clontech, Mountain View, Calif.), and the viral solution was produced using PT67 package cell lines. Hs578T cells were infected with this viral solution, and stably infected cells were selected by G418 at 0.8 mg/ml for 5 days. The status of SATB1 level in manipulated MDA-MB-231 and Hs578T cells were examined by Western blot and real-time RT-PCR.
To evaluate the change of gene expression level depending on SATB1 status, semi-quantitative or real-time RT-PCR analysis of selected genes was performed (primer sequences are available upon request). Total RNA was extracted for cell lines using TR1 reagent (Sigma) followed by RNA clean-up with RNeasy Mini kit (Qiagen, Valencia, Calif.). For semi-quantitative RT-PCR, 5 μg of total RNA was reverse-transcribed into single stranded cDNA using Superscript II RNaseH-reverse transcriptase (Invitrogen) according to the protocol supplied with the kit. PCR cycle was controlled starting from 25 to 40 cycles upon gene-specific primers (20 ng of cDNA/reaction). Each cycle consisted of the following steps, using GeneAmp PCR system 9700 (PerkinElmer Inc., Fremont, Calif.); 94° C. for 30 s, 55° C. for 30 s, and 72° C. for 60 s. PCR products were separated on 1.5% agarose gels and visualized them by staining with ethidium bromide. SYBR Green PCR Core Reagents system was used for real-time monitoring of amplification on ABI 7500 Fast Real-time PCR System (Applied Biosystems, Foster City, Calif.). Absolute quantification method was employed to quantify target DNA fragments in triplicate with following cycling condition; 95° C. for 2 min, followed by 40 cycles of 95° C. for 3 s and 60° C. for 30 s.

MDA-MB-231 cells [2] = assay: Cell morphology and immunostaining in 3D Matrigel culture; assay type: cell-based, human; details: F-actin, β-catenin, integrin α6 immunostaining
Experimental: Changes in cell morphology. Referring now to FIG. 5, phase contrast micrographs of MDA-MB-231 control cells (control shRNA) or SATB1-shRNA1 MDA cells (SATB1-shRNA1) cultured on plastic (2D) and matrigel (3D) are shown. Major differences in cell morphology were observed when SATB1-shRNA1 MDA cells were grown in 3D culture, compared to control cells. The cell morphology was changed from stellate-like scattered (MDA-MB-231 with control shRNA) to spherical structures (MDA-MB-231 with SATB1-shRNA). […] In addition, MDA-MB-231 cells expressing SATB1-shRNA were able to basally deposit and organize a basement membrane on Matrigel, showing the characteristic acini formation, even though there was a minor difference in morphology as observed in MCF10A control cells.
Immunostaining of cells in culture. Total 1×10^4 cells mixed with Matrigel (5 mg/mL) were plated in 6-well plates pre-coated in a thick layer (1 mm) of Matrigel. Solidified Matrigel was overlaid with Growth medium (DMEM), and renewed at every 4 days. Colony formation and cell morphology was observed under light microscopy after 3 days to 14 days.
Cells were fixed in 4% paraformaldehyde, permeablized in 0.1% Triton X100, and blocked in 5% BSA. […] Staining was detected with secondary Alexa Fluor 488 and/or Alexa Fluor 594 Abs (Molecular Probes). […]

MDA-MB-231 cells [3] = assay: Boyden chamber invasion assay; assay type: cell-based, human; details: remaining invasiveness
Experimental: Boyden chamber assay. Boyden chamber chemo-migration assays were performed using a 24-well chemotaxis chamber (BD biosciences, Inc.). Breast cancer cells were seeded in triplicate at 50,000 cells/well onto the upper chambers with a 8 μm polycarbonate filter membrane coated with diluted Matrigel (10-25%) (BD biosciences, Inc.), and incubated at 37° C. in humidified 5% CO2 for 20 hrs. Conditioned media derived from NIH3T3 fibroblast cultures was used as a chemoattractant in the lower chambers. The migrated cells on underside of chambers were fixed in 10% (wt/vol) buffered-formalin and stained with crystal violet. After removal of cells remaining in the top chamber with a cotton swab, the numbers of cells that had migrated through the pores were assessed by light microscopy.

MDA-MB-231 cells [4] = assay: Tumor growth in mammary fat pads of athymic nude mice; assay type: in vivo, mouse; details: 6 mice, clone or pool of cells; controls formed large tumors within 39 days (6/6)
Description: We injected control and SATB1-shRNA1 cells into the fourth mammary fat pads of athymic nude mice and monitored tumor growth.

MDA-MB-231 cells [5] = assay: Gene expression profiling (Affymetrix and Codelink microarrays); assay type: cell-based, human; details: >1.5-fold, under both plastic and Matrigel culture, versus control shRNA
Description: We performed gene expression profiling on MDA-MB-231 cells expressing either control shRNA or SATB1-shRNA1 grown in culture. […] We also categorized those affected genes based on the gene ontology (GO)(URL: <http//www.geneontology.org/index.shtml>) annotation.

MDA-MB-231 cells [6] = assay: Experimental metastasis assay, tail vein injection into athymic mice, lung nodules; assay type: in vivo, mouse; details: 1×10^6 cells i.v., nine weeks, six mice
Experimental: The removal of SATB1 from MDA-MB-231 (aggressive) cells diminished metastatic activity: SATB1-shRNA1 MDA, SATB1-shRNA2 MDA, and control cells (1×10^6 cells) were injected intravenously into the lateral tail vein of 6-week-old athymic mice to evaluate metastasis of these cancer cell lines to lung. In mice, the metastasis of orthotopically grown tumors derived from human MDA-MB-231 cells is a relatively rare event. Therefore, by directly introducing cells into the circulation, we examined the requirement of SATB1 in cancer cell survival in circulation and extravasation to and growth in the lung. By nine weeks after tumor-cell injection, the lungs of mice injected with the control cells had formed numerous nodules, ranging in number from 125 to 160 per lung in all six mice analyzed (FIG. 11a,b). […]
1×10^6 cells MDA-MB-231 cells expressing control-shRNA, SATB1-shRNA1 or SATB1-shRNA2 MDA cells were injected into the tail veins of each mouse, and lungs were examined for metastatic nodules (arrows) 9 weeks later. […] In FIG. 11b, total numbers of metastatic lung nodules from individual mice were counted under a dissection microscope. For lungs of representative mice indicated, human SATB1 expression levels in human breast cancer cells colonized in lungs were analyzed by RT-PCR using human GAPDH as a loading control, with the use of human SATB1 and GAPDH specific oligomers. […]

B1: SATB1-shRNA1: shRNA against the SATB1 coding region, target GGATTTGGAAGAGAGTGTC (SEQ ID NO: 8); SEQ ID NOs: 4/5, expressed from pSUPER-puro (nucleic acid)
chain 1: GATCCCCGGATTTGGAAGAGAGTGTCTTCAAGAGAGACACTCTCTTCCAAATCCTTTTTGGAAA
chain 2: AGCTTTTCCAAAAAGGATTTGGAAGAGAGTGTCTCTCTTGAAGACACTCTCTTCCAAATCCGGG
modifications: target site or template, no part of the molecule
proliferation rates (MDA-MB-231 cells [1]): significantly reduced
Expression of SATB1 was lowered by (SATB1): 70%
SATB1 expression levels (SATB1): 30.4%±3.7
SATB1 expression (in words) (SATB1): greatly reduced
cell morphology in 3D culture (MDA-MB-231 cells [2]): organized and polarized morphology, forming acinus-like structures
invasiveness compared with host MDA-MB-231 cells (MDA-MB-231 cells [3]): 20%
tumor growth in mammary fat pads (MDA-MB-231 cells [4]): either no tumors or greatly reduced tumor growth
downregulated genes upon SATB1 depletion (Tree 1) (MDA-MB-231 cells [5]): 409 genes
upregulated genes upon SATB1 depletion (Tree 2) (MDA-MB-231 cells [5]): 456 genes

B2: SATB1-shRNA2: shRNA against the SATB1 3′UTR, target GTCCACCTTGTCTTCTCTC (SEQ ID NO: 9); SEQ ID NOs: 6/7, expressed from pSUPER-puro (nucleic acid)
chain 1: GATCCCCGTCCACCTTGTCTTCTCTCTTCAAGAGAGAGAGAAGACAAGGTGGACTTTTTGGAAA
chain 2: AGCTTTTCCAAAAAGTCCACCTTGTCTTCTCTCTCTCTTGAAGAGAGAAGACAAGGTGGACGGG
modifications: the letters are possibly those of the target site
proliferation rates (MDA-MB-231 cells [1]): significantly reduced
lung metastases observed (in words) (MDA-MB-231 cells [6]): not observed in five out of six mice
number of lung metastases (nodules per lung) (MDA-MB-231 cells [6]; control cells 125 to 160 per lung): five
Expression of SATB1 was lowered by (SATB1): 90%
SATB1 expression levels (SATB1): 12.5%±5.2
SATB1 expression (in words) (SATB1): greatly reduced
cell morphology in 3D culture (MDA-MB-231 cells [2]): organized and polarized morphology, forming acinus-like structures
invasiveness compared with host MDA-MB-231 cells (MDA-MB-231 cells [3]): 20%
